Measurements published in US7135170B2 (ZymoGenetics, Inc., priority 2002, dated 2006).

B1: MetIL-29-PEG: E. coli derived IL-29 with N-terminal Met, conjugated to PEG (conjugate, UniProt Q8IU54 20-200, looked up)
Interferon lambda-1: GPVPTSKPTTTGKGCHIGRFKSLSPQELASFKKARDALEESLKLKNWSCSSPVFPGNWDLRLLQVRERPVALEAELALTLKVLEAAAGPALEDVLDQPLHTLHHILSQLQACIQPQPTAGPRPRGRLHHWLHRLQEAPKKESAGCLEASVTFNLFRLLTRDLKYVADGNLCLRTSTHPEST
modifications: N-terminal Met; PEG
notes: E. coli derived IL-29 with N-terminal Met, conjugated to PEG
B2: Muzcytor19-Ig: murine zcytor19-Ig homodimeric soluble receptor (protein)
chain: RPRLAPPRNVTLFSQNFTVYLTWLPGLGSPPNVTYFVTYQSYIKTGWRPVEHCAGIKALVCPLMCLKKLNLYSKFKGRVQAASAHGRSPRVESRYLEYLFDVELAPPTLVLTQMEKILRVNATYQLPPCMPSLELKYQVEFWKEGLGSKTLFPDTPYGQPVQIPLQQGASRRHCLSARTVYTLIDIKYSQFSEPSCIFLEAPGDKRA
modifications: left off: small tags and cut ends
notes: murine zcytor19-Ig homodimeric soluble receptor
B3: Huzcytor19-Fc: human zcytor19-Fc homodimeric soluble receptor (protein)
chain: RPRLAPPQNVTLLSQNFSVYLTWLPGLGNPQDVTYFVAYQSSPTRRRWREVEECAGTKELLCSMMCLKKQDLYNKFKGRVRTVSPSSKSPWVESEYLDYLFEVEPAPPVLVLTQTEEILSANATYQLPPCMPPLDLKYEVAFWKEGAGNKTLFPVTPHGQPVQITLQPAASEHHCLSARTIYTFSVPKYSKFSKPTCFLLEVPEAN
modifications: left off: a dimerising Fc or GST
notes: human zcytor19-Fc homodimeric soluble receptor

Assays:
zcyto21 = zcyto21 (Homo sapiens, UniProt Q8IU54); assay: Soluble receptor inhibition of ligand-induced ISRE signaling, 293 HEK cells overexpressing zcytor19: zcyto21; assay type: cell-based; conditions: ligand Zcyto21 10 ng/ml; soluble receptor 10 micrograms/ml; 4-hour
Description: (§1) A signal transduction reporter assay can be used to show the inhibitor properties of zcytor19-Fc4 homodimeric and zcytor19-Fc/CRF2-4-Fc heterodimeric soluble receptors on zcyto20, zcyto21and zcyto24 signaling. Human embryonal kidney (HEK) cells overexpressing the zcytor19 receptor are transfected with a reporter plasmid containing an interferon-stimulated response element (ISRE) driving transcription of a luciferase reporter gene. Luciferase activity following stimulation of transfected cells with ligands (including zcyto20 (SEQ ID NO:18), zcyto21 (SEQ ID NO:20), zcyto24 (SEQ ID NO:8)) reflects the interaction of the ligand with soluble receptor.
(§2) 293 HEK cells overexpressing zcytor19 were transfected as follows: 700,000 293 cells/well (6 well plates) were plated approximately 18 h prior to transfection in 2 milliliters DMEM+10% fetal bovine serum. Per well, 1 microgram pISRE-Luciferase DNA (Stratagene) and 1 microgram pIRES2-EGFP DNA (Clontech,) were added to 6 microliters Fugene 6 reagent (Roche Biochemicals) in a total of 100 microliters DMEM. This transfection mix was added 30 minutes later to the pre-plated 293 cells. Twenty-four hours later the transfected cells were removed from the plate using trypsin-EDTA and replated at approximately 25,000 cells/well in 96 well microtiter plates. Approximately 18 h prior to ligand stimulation, media was changed to DMEM+0.5% FBS.
(§3) The signal transduction reporter assays were done as follows: Following an 18 h incubation at 37° C. in DMEM+0.5% FBS, transfected cells were stimulated with 10 ng/ml zcyto20, zcyto2l or zcyto24 and 10 micrograms/ml of the following soluble receptors; human zcytor19-Fc homodimer, human zcytor19-Fc/human CRF2-4-Fc heterodimer, human CRF2-4-Fc homodimer, murine zcytor19-Ig homodimer. Following a 4-hour incubation at 37° C., the cells were lysed, and the relative light units (RLU) were measured on a luminometer after addition of a luciferase substrate. The results obtained are shown as the percent inhibition of ligand-induced signaling in the presence of soluble receptor relative to the signaling in the presence of PBS alone.

zcyto20 = biological target: T1, zcyto20 (Homo sapiens, UniProt Q8IZJ0); assay: Soluble receptor inhibition of ligand-induced ISRE signaling, 293 HEK cells overexpressing zcytor19: zcyto20; assay type: cell-based; conditions: for Percent Inhibition of Ligand-induced ISRE Signaling by Soluble Receptors: ligand Zcyto20 10 ng/ml, soluble receptor 10 micrograms/ml, 4-hour; for inhibition of zcyto20, zcyto21 and zcyto24-induced signaling: text summary over the three ligands
T1 sequence (Q8IZJ0 26-200): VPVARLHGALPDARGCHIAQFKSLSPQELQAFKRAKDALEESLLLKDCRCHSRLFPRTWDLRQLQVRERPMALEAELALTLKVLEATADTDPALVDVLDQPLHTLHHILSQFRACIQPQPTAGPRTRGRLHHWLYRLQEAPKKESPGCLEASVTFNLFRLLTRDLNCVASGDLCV
Description: as §1, §2, §3

zcyto24 = biological target: T2, zcyto24 (Mus musculus, UniProt Q4VK74); assay: Soluble receptor inhibition of ligand-induced ISRE signaling, 293 HEK cells overexpressing zcytor19: zcyto24; assay type: cell-based; conditions: ligand Zcyto24 10 ng/ml; soluble receptor 10 micrograms/ml; 4-hour
T2 construct: The mature polypeptide comprises amino acid residue 29 (Asp) to amino acid residue 202 (Val)
T2 sequence (Q4VK74 20-193): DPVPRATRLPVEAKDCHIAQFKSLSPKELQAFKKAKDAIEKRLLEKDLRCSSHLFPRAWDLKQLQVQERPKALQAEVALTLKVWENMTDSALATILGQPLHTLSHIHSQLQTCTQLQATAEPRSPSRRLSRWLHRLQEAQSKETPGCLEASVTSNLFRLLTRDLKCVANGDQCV
Description: as §1, §2, §3

[1] = tested on: ISG gene expression (OAS, Pkr, Mx1) in liver, spleen and blood; assay: ISG gene expression in liver, spleen and blood of injected mice (real-time PCR); assay type: in vivo, mouse; conditions: liver, 100 μg i.v.; for PKR: mice (Naive 3.70); for OAS: mice (Naive 6.60); for Mx1: mice (Naive 10.98)
Method: Mice were sacrificed at various time points (1 hr-48 hr). Spleens and livers were isolated from mice, and RNA was isolated. RNA was also isolated from the blood cells. The cells were pelleted and RNA isolated from pellets using RNAEasy®-kit (Qiagen). RNA was treated with DNase (Amicon) to rid RNA of any contaminating DNA. cDNA was generated using Perkin-Elmer RT mix (Perkin-Elmer). ISG gene induction was measured by real-time PCR using primers and probes specific for mouse OAS, Pkr and Mx1. To obtain quantitative data, HPRT real-time PCR was duplexed with ISG PCR. A standard curve was calculated using known amounts of IFN-stimulated mouse PBLs. All data are shown as expression relative to internal HPRT expression.
Results shown are fold expression relative to HPRT gene expression. […] The data shown is the average expression from 5 different animals/group.
Mice were injected with 100 μg of proteins i.v. Data shown is fold expression over HPRT expression from livers of mice. Similar data was obtained from blood and spleens of mice.

| Molecule | Percent Inhibition of Ligand-induced ISRE Signaling by Soluble Receptors (zcyto21) [%] | Percent Inhibition of Ligand-induced ISRE Signaling by Soluble Receptors (zcyto20) [%] | inhibition of zcyto20, zcyto21 and zcyto24-induced signaling (zcyto20) | Percent Inhibition of Ligand-induced ISRE Signaling by Soluble Receptors (zcyto24) [%] | other results |
| --- | --- | --- | --- | --- | --- |
| HuCRF2-4-Fc: human CRF2-4-Fc homodimeric soluble receptor | 79 | 80 | No significant effects | 82 |  |
| Huzcytor19-Fc/huCRF2-4-Fc: human zcytor19-Fc/human CRF2-4-Fc heterodimeric soluble receptor | 16 | 16 |  | 47 |  |
| B1 |  |  |  |  | PKR ([1]; 3 hr): 18.24 fold expression over HPRT expression; OAS ([1]; 3 hr): 91.29 fold expression over HPRT expression; Mx1 ([1]; 3 hr): 537.51 fold expression over HPRT expression; PKR ([1]; 6 hr): 13.93 fold expression over HPRT expression; OAS ([1]; 6 hr): 65.93 fold expression over HPRT expression; Mx1 ([1]; 6 hr): 124.99 fold expression over HPRT expression; PKR ([1]; 12 hr): 4.99 fold expression over HPRT expression; OAS ([1]; 12 hr): 54.04 fold expression over HPRT expression; Mx1 ([1]; 12 hr): 33.58 fold expression over HPRT expression; PKR ([1]; 24 hr): 3.77 fold expression over HPRT expression; OAS ([1]; 24 hr): 20.81 fold expression over HPRT expression; Mx1 ([1]; 24 hr): 35.82 fold expression over HPRT expression |
| B2 | 103 | 91 | No significant effects | 89 |  |
| B3 | 45 | 92 |  | 90 |  |
